According to patent US9073976B2, “ND2 peptides and methods of treating neurological disease” (NoNO Inc., priority 2010, dated 2015):
“Also recorded” adds a separate entry of the source. No end group written: not given here. *: point of attachment. Myristoyl = CCCCCCCCCCCCCC(=O)*

Legend:
Tat-ND2 310-321 = target: T1, Tat-ND2 310-321 (Homo sapiens, UniProt P03891); assay: ELISA plate coated with Tat-ND2 310-321, binding of biotinylated Src peptides; details: FIG. 5C
T1 construct: 10; Tat-ND2 310-321; […]
Experimental: (§1) Src40-49-Tat indicate a fusion peptide in which the human HIV-1 tat protein transduction domain [[…]] […] (SEQ ID NO:10). […] The peptides were plated at a concentration of ˜5 uM.

Src 40-58 [1] = target: T2, Src 40-58 (Homo sapiens, UniProt P12931, A55V); assay: Dot blot of GST-ND2 fragments probed with biotinylated Src 40-58; type: binding; details: GST-fusion proteins spotted 1-10 ug, biotinylated peptide ~15 ug/ml, 2 hours
T2 construct: KPASADGHRG P SAAFVPAA
Experimental: GST-fusion proteins were designed using different fragments of ND2 and expressed and purified using standard protocols. These purified proteins were spotted onto membranes for probing with biotinylated Src 40-58 peptide or a scrambled control peptide (sSrc 40-58). In general, 1-10 ug of peptide or recombinant protein was spotted onto nitrocellulose and dried overnight. Membranes were blocked with 5% milk for 1 h at room temperature, then incubated with biotinylated peptides (˜15 ug/ml) for 2 hours the washed using standard wash buffers. Bound probe was detected using a short incubation with streptavidin conjugated to horseradish peroxidase (SA-HRP) and standard detection reagents, predominantly chemiluminescence kits. […] Further GST-constructs were made to narrow the core Src binding regions (FIG. 2A). Dot blots were made with these constructs and tested for their ability to capture biotinylated Src 40-58 (FIG. 2B).
(§2) Further GST constructs were made to identify the amino acid sequences in ND2.1.4 responsible for binding to Src 40-58 (FIG. 3A). Although these sequences are minimally responsible for binding, sequences corresponding to ND2 these sequences as well as those flanking them could be used for inhibition of the Src-ND2 interaction. […] As before, interactions with all of the fragments were confirmed in an ELISA assay (FIG. 3C), and the top binders were ND2 310-321, ND2 289-309, ND2 299-318, ND2 307-321 and full length ND2. […] All fragments tested were able to bind Src40-58 more strongly than the negative control peptide sSrc 40-58.

[2] = tested on: PACAP-enhanced NMDA-evoked currents in CA1 neurons; assay: Patch clamp of PACAP-enhanced NMDA-evoked currents in isolated CA1 neurons; type: cell-based, rat; details: PACAP 1 nM in patch pipette, peptide 6 mM, 25 to 30 minutes after PACAP
Text: Pituitary Adenylate Cyclase-activating Polypeptide (PACAP) selectively increases NMDA receptor mediated responses in rat neurons, and it is thought that this peptide is involved in the regulation of synaptic plasticity as well as both long term potentiation and depression. To examine the effect of ND2 310-321 and Src 40-49 on PACAP-enhanced NMDA-evoked currents, isolated CA1 neurons were subjected to a series of patch clamp experiments in the presence or absence of these peptides. […] ND2 310-321 can prevent PACAP-induced potentiation. Similar experiments were also performed using the Src-selective inhibitory peptide, Src(40-58) (14 mM), or the truncated peptide, Src(40-49) (6 mM). The responses prior to application of PACAP were normalized the responses at 25 to 30 minutes following application of PACAP. The bar graph indicates three groups of recordings from neurons and indicated the relative change in peak NMDAR currents under the three conditions. ND2 310-321, but not Src40-49, inhibits PACAP-enhanced NMDA-evoked currents. Thus, ND2 310-321 can be used to block PACAP enhanced NMDA-evoked signaling and can therefore be used in many neurological diseases and disorders associated with impaired with long term potentiation (e.g., aging, Alzheimer's, neurodegenerative diseases and neuronal disorders affect memory).

ND2 310-321 = target: T3, ND2 310-321 (Homo sapiens, UniProt P03891); assay: Dot blot of Src fragments probed with biotinylated ND2 310-321; type: binding; details: FIG. 5A
T3 construct: 7; NVKMKWQFEHTK
Experimental: as §1

Src 40-49 [3] = target: T4, Src 40-49 (Homo sapiens, UniProt P12931); assay: Dot blot of ND2 constructs binding Src 40-49; details: FIG. 4A
T4 construct: KPASADGHRG
Text: (§3) We next examined the ability of the ND2 constructs to bind to a shorter version of the Src binding domain—Src 40-49 (FIGS. 4A, B). ND2 310-321, ND2 307-318, and ND2 310-318 were the top binders of Src 40-49 by dot blot analysis (FIG. 4A).

Src 40-58 [4] = target: T2, Src 40-58; assay: ELISA of coated ND2 constructs with biotin-Src 40-58; type: binding; details: biotin-Src 40-58 at 6 uM
Experimental: GST-ND2, GST-ND2.1 or GST-ND2.1.4 were coated onto ELISA wells by incubating at the indicated concentration under standard conditions. Wells were blocked using 5% milk, and either biotin-Src 40-58 (FIG. 2C top) or biotin-sSrc 40-58 (bottom) were incubated at 6 uM.
as §2

Src 40-49 [5] = target: T4, Src 40-49; assay: ELISA of ND2 constructs binding Src 40-49; details: FIG. 4B
Text: as §3

[6] = target: T5, ND2, Src, NMDAR subunits, and PSD95 in hippocampal neurons (Rattus norvegicus, UniProt P11662+Q9WUD9); assay: Immunocytochemistry colocalization in 14DIV hippocampal neurons; type: cell-based; details: 1 uM peptide for 1 h, day 14 neurons
T5 construct: endogenous in cells; host or cells: primary hippocampal neurons from E17/E18 Wistar rats, 14 DIV
Experimental: A series of experiments was performed to examine the localization of ND2, Src, NMDAR subunits, and PSD95 in hippocampal neurons by immunocytochemistry in the presence of Tat, Tat-ND2 310-321, or Src 40-49-Tat. Briefly, hippocampal neurons were isolated from embryonic day #17/E18 Wistar rats, and cultured in neurobasal media containing coverslips with B27 and glutamax. Cells were then treated for 1 hr with luM peptide before fixing by standard methods. Proteins were visualized using specific antibodies and secondary antibodies coupled to fluorescent molecules. Colocalization of fluorescence was calculated by merging the images in Photoshop and calculating the % colocalized between pairs as the total colocalized fluorescence clusters divided by the total number of clusters (e.g., % colocalized ND2 with Src=(total colocalized)/(total ND2 clusters); % colocalized Src with ND2=(total colocalized)/(total Src clusters)).
Hippocampal neurons cultured on coverslips were treated with 1 uM of Src 40-49-Tat, Tat-ND2 310-321 or Tat for 1 h at the day 14. Then neurons were incubated in 4% paraformaldehyde and 4% sucrose in phosphate-buffered saline (PBS) for 10 minutes followed by 5 minutes […] at room temperature (RT). Cells were permeabilized with 0.25% Triton X-100 in PBS for 5 minutes and by treatment with 5% donkey serum in PBS for 30 minutes at RT. The cultures were incubated with a mixture of the primary antibodies, raised in various species, in 0.25% Triton X-100 PBS for 2 hours at RT, washed, and incubated for 1 hour at RT with a mixture of species-specific secondary antibodies all raised in donkey and conjugated to either Texas Red, or FITC fluorophores (1:200 dilution in 0.25% Triton X-100 PBS). The coverslips were washed with PBS and mounted using ProLong Gold antifade reagent (Invitrogen). Images were collected using a 60× pan-fluor objective on a Nikon Eclipse TE 200 microscope. The images were analyzed with PhotoShop 7 (Adobe, San Jose, Calif.). Brightness and contrast were adjusted, sharpened using the unsharpen mask tool, and the images were merged for color colocalization.
For quantification of the colocalization, the maximum intensities of the fluorophore channels were normalized and the background fluorescence of each channel seen in the dendrites was subtracted, the color images were merged. Two clusters in two different channels were considered colocalizing when at least 66% of the surface of one clusters in one of the two channels overlapped with a clusters in the other channel. For each combination of antibodies, three independent immunofluorescence experiments were done. Each measurement was taken from a 50-m-long dendritic segment (with an average width of 2 m). Colocalization was expressed as the percent of the total clusters analyzed.

rats subjected to 3PVO = assay: Three pial vessel occlusion (3PVO) model of stroke, infarct volume; type: in vivo, rat
Experimental: The efficacy of ND2 inhibitors in the treatment of stroke was examined using the three pial vessel occlusion (3PVO) model of stroke. This is a permanent model of stroke that creates small but consistent infarcts at 24 hours.
Male Sprague Dawley rats (n=10 in each group) were surgically subjected to permanent occlusion of the pial vessels. One hour post-surgery, animals were given an intravenous injection of Saline, Tat-NR2B9c (Aarts et al, Science, 2002), Src 40-49-Tat or Tat-ND2 310-321 and allowed to further recover in their cages. 24 hours after surgery, brains were harvested, sliced and incubated with TTC to visualize the areas of infarction. The infarct volume of each animal was determined, as well as the average volumes for each group of ten.
Both peptides were myristoylated via an amide bond to the alpha-amino group of the N-terminal amino acid of the peptide.
Male Sprague Dawley rats (n=10 in each group) weighing between 230 and 290 g were used for this study. Experiments were performed on fasted rats (Free overnight access to water but not food). For permanent three pial vessel occlusion (3PVO) was performed as described previously (Forder J et al., 2005, supra). In brief, rats were anesthetized with a 0.5 ml/kg intramuscular injection of ketamine (100 mg/kg), acepromazine (2 mg/kg), and xylazine (5 mg/kg), supplemented with one-third of the initial dose as required. An anal temperature probe was inserted, and the animal was placed on a heating pad maintained at 37° C. The skull was exposed via a midline incision and scraped free of tissue. Using a dissecting microscope and a pneumatic dental drill, a 6- to 8-mm cranial window was made over the right somatosensory cortex (2 mm caudal and 5 mm lateral to bregma) by drilling a rectangle through the skull and lifting off the piece of skull while keeping the dura intact. The 3 pial arteriolar middle cerebral artery branches around the barrel cortex were selected and electrically cauterized through the dura. After the cauterizations, the scalp was sutured. […]

[7] = Arterial blood pressure after rapid high-dose intravenous bolus; details: ~25 mg/kg bolus injection into the tail vein
Experimental: Rats with surgically implanted devices to measure arterial pressure were dosed with ˜25 mg/kg of the respective peptides as a bolus injection into the tail vein at 10 minutes post monitoring.

[8] = target: T6, binding of biotinylated Src40-49 to ND2 310-321 (Homo sapiens, UniProt P03891+P12931); assay: Competition ELISA, binding of biotinylated Src40-49 to coated ND2 310-321; details: FIG. 5D, FIG. 7
T6 construct: 7; NVKMKWQFEHTK; KPASADGHRG
Experimental: Competition ELISAs were also performed. […] In a similar manner, ND2 constructs bearing amino acid sequences from the 300-321 region are able to act as inhibitors of the interaction between ND2 and Src.

Molecule: Bio-sSrc 40-49: biotinylated scrambled control peptide (GAAKRPSDGH; also: biotinylated, position not given here)
- binding to coated Tat-ND2 310-321 (ELISA) (Tat-ND2 310-321): no binding was seen

Molecule: ITLLPMSNNVKMKWQFEHTK [ND2 302-321]
- binding of biotinylated Src 40-58 (dot blot) (Src 40-58 [1]): binding was seen

Molecule: KPASADGHRG [Src40-49]
- effect on PACAP-enhanced NMDA-evoked currents ([2]; listed as Src 40-49): does not
- binding of biotinylated ND2 310-321 (dot blot) (ND2 310-321): bound ND2 310-321

Molecule: MSNNVKMKWQFE [ND2 307-318]
- binding of Src 40-49 (dot blot) (Src 40-49 [3]): top binders; also recorded: strong binding

Molecule: MSNNVKMKWQFEHTK [ND2 307-321]
- binding of biotin-Src 40-58 (ELISA) (Src 40-58 [4]): top binders
- binding of biotinylated Src 40-58 (dot blot) (Src 40-58 [1]): binding was seen

Molecule: NLYFYLRLIYSTSITLLPMSN [ND2 289-309]
- binding of biotin-Src 40-58 (ELISA) (Src 40-58 [4]): top binders
- binding of biotinylated Src 40-58 (dot blot) (Src 40-58 [1]): binding was seen

Molecule: NLYFYLRLIYSTSITLLPMSNNVKMKWQFEHTK (not fully specified) [ND2.1.4, GST-fusion protein of ND2 fragment AA 289-321]
- binding of biotin-Src 40-58 (ELISA) (Src 40-58 [4]): concentration-dependent manner
- binding of biotinylated Src 40-58 (dot blot) (Src 40-58 [1]): most effective sub fragment for binding Src 40-58
- binding of biotinylated Src 40-58 (dot blot) (Src 40-58 [1]; listed as ND 2.1.4): better than ND2.1.3

Molecule: NVKMKWQFE [ND2 310-318]
- binding of Src 40-49 (dot blot) (Src 40-49 [3]): top binders; also recorded: strong binding

Molecule: NVKMKWQFEHTK [ND2 310-321]
- effect on PACAP-enhanced NMDA-evoked currents [2]: inhibits
- binding of Src 40-49 (dot blot) (Src 40-49 [3]): top binders; also recorded: strong binding
- binding of biotin-Src 40-58 (ELISA) (Src 40-58 [4]): top binders
- binding of biotinylated Src 40-58 (dot blot) (Src 40-58 [1]): binding with high relative affinity
- binding of Src 40-49 (ELISA) (Src 40-49 [5]): strongest binding

Molecule: STSITLLPMSNNVKMKWQFE [ND2 299-318]
- binding of biotin-Src 40-58 (ELISA) (Src 40-58 [4]): top binders
- binding of biotinylated Src 40-58 (dot blot) (Src 40-58 [1]): binding was seen

Molecule: YGRKKRRQRRR [Tat]
- colocalization of Src and ND2 [6]: does not

Molecule: YGRKKRRQRRRKLSSIESDV [Tat-NR2B9c]
- decline in infarct volume (rats subjected to 3PVO; 3 nmol/g intravenous one hour post-surgery, 24 hours after surgery, n=10): approximately 40%
- mean arterial blood pressure after bolus [7]: about one half of normal

Molecule: YGRKKRRQRRRKPASADGHRG [Tat-Src40-49]
- binding of biotinylated ND2 310-321 (dot blot) (ND2 310-321): bound ND2 310-321
- inhibition of binding of biotinylated Src40-49 to ND2 310-321 (competition ELISA) [8]: inhibited

Molecule: YGRKKRRQRRRNVKMKWQFEHTK [Tat-ND2 310-321]
- mean arterial blood pressure after bolus [7]: about one half of normal

Molecule: bio-Src 40-49: biotinylated Src 40-49 peptide (KPASADGHRG; also: biotinylated, position not given here)
- binding to coated Tat-ND2 310-321 (ELISA) (Tat-ND2 310-321): able to bind in a concentration dependent manner

Molecule: myristoyl- MSNNVKMKWQFEHTK (Myristoyl-MSNNVKMKWQFEHTK) [Myr2-ND2]
- protection against damage from the stroke, second experiment (FIG. 22) (rats subjected to 3PVO; given intravenously 1 hour after onset of stroke, relative to Tat-ND2): equivalent or superior protection

B1: ND2.1: GST-fusion protein of ND2 sub fragment AA239-321 (protein)
chain: WLTPLIPSTLLSLGGLPPLTGFLPKWAIIEEFTKNNSLIIPTIMATITLLNLYFYLRLIYSTSITLLPMSNNVKMKWQFEHTK
modifications: left off: a dimerising Fc or GST
- binding of biotin-Src 40-58 (ELISA) (Src 40-58 [4]): concentration-dependent manner
- binding of biotinylated Src 40-58 (dot blot) (Src 40-58 [1]): can also bind Src 40-58; also recorded: better than ND2.1.3
